# Reference: patent publication US20240216425A1, “Engineered Macrophages for Cancer Immunotherapy” (The Trustees of the University of Pennsylvania, priority 2022, published 2024)
# Entries after “also recorded” stand apart in the source; their conditions may differ. Where two headings read alike, the source gives them in different places.
# Experiments:
# [1] = system: macrophages in CD47 KO tumoroids; test: Macrophage clustering in tumoroids (entropy image analysis, radial profiles, cluster area); type: cell-based, mouse; conditions: 2 mM chelator added ~24 h after macrophages and anti-Tyrp1, read 3 h later
# Protocol: Tumoroids. To generate surfaces conducive to B16 tumoroid formation, 96-well plates (Greiner Bio-One 650161) were either coated with 70 μL of 2% agarose in water or PBS or, more commonly, treated for 20 min with 100 μL of anti-adherence rinsing solution (StemCell Technologies 07010). The wells were washed with PBS, and then blocked with 0.5-1% (w/v) bovine serum albumin (BSA, Sigma) 37° ° C. for 1 h. B16 were detached by brief trypsinization, resuspended in RPMI supplemented with 10% FBS, 1× non-essential amino acid solution (Gibco 11140050) and 1 mM sodium pyruvate (Gibco 11360070) at a concentration of 1×103 or 1×10^4 per mL, and added to passivated wells in a volume of 100 μL. […] For tumoroid disaggregation studies, EDTA and EGTA were added in PBS to obtain a final concentration of 2 mM, and in some cases magnesium sulphate was also added for a final concentration of 5 mM Mg2+. Latrunculin A (Invitrogen L12370) dissolved at 1 μM in DMSO was further diluted in PBS and added to obtain a final concentration of 1 μM. […] Tumoroid areas were measured in Fiji/ImageJ after thresholding GFP fluorescence using built-in thresholding algorithms and manually adjusting the threshold as needed.
# B16 tumoroids = type: cell-based, mouse
# Protocol: Tumoroids. To generate surfaces conducive to B16 tumoroid formation, 96-well plates (Greiner Bio-One 650161) were either coated with 70 μL of 2% agarose in water or PBS or, more commonly, treated for 20 min with 100 μL of anti-adherence rinsing solution (StemCell Technologies 07010). The wells were washed with PBS, and then blocked with 0.5-1% (w/v) bovine serum albumin (BSA, Sigma) 37° ° C. for 1 h. B16 were detached by brief trypsinization, resuspended in RPMI supplemented with 10% FBS, 1× non-essential amino acid solution (Gibco 11140050) and 1 mM sodium pyruvate (Gibco 11360070) at a concentration of 1×103 or 1×10^4 per mL, and added to passivated wells in a volume of 100 μL. […] For tumoroid disaggregation studies, EDTA and EGTA were added in PBS to obtain a final concentration of 2 mM, and in some cases magnesium sulphate was also added for a final concentration of 5 mM Mg2+. Latrunculin A (Invitrogen L12370) dissolved at 1 μM in DMSO was further diluted in PBS and added to obtain a final concentration of 1 μM. For phagocytosis versus growth studies, CellTracker Deep Red-labeled BMDMs and antibodies (final concentration 20 μg/mL anti-Tyrp1 and/or 20 μg/mL anti-CD47 or 10 μg/mL anti-SIRPα) or mouse serum (final concentration 1:200) were added 24 h later in a volume of 20 μL RPMI growth media with 120 ng/mL M-CSF. For myosin-II inhibition studies, 20 μM blebbistatin (MilliporeSigma 203389) or an equal volume of DMSO vehicle was added to B16 tumoroids for 1 h prior to addition of BMDMs. Tumoroids were imaged on the Olympus IX microscope with 20×/0.4 NA, 10×/0.3 NA, or 4×/0.13 NA objectives. Tumoroid areas were measured in Fiji/ImageJ after thresholding GFP fluorescence using built-in thresholding algorithms and manually adjusting the threshold as needed.
# CD47 KO B16 tumoroids = test: Immuno-tumoroid growth with bone marrow-derived macrophages; type: cell-based, mouse; conditions: for tumoroid elimination and macrophage clusters: macrophages pre-treated with cytokine (20 ng/mL, 48 h)
# Protocol: Tumoroids. To generate surfaces conducive to B16 tumoroid formation, 96-well plates (Greiner Bio-One 650161) were either coated with 70 μL of 2% agarose in water or PBS or, more commonly, treated for 20 min with 100 μL of anti-adherence rinsing solution (StemCell Technologies 07010). The wells were washed with PBS, and then blocked with 0.5-1% (w/v) bovine serum albumin (BSA, Sigma) 37° ° C. for 1 h. B16 were detached by brief trypsinization, resuspended in RPMI supplemented with 10% FBS, 1× non-essential amino acid solution (Gibco 11140050) and 1 mM sodium pyruvate (Gibco 11360070) at a concentration of 1×103 or 1×10^4 per mL, and added to passivated wells in a volume of 100 μL. A single aggregate of B16 cells formed in each well, typically within 12 h. For tumoroid disaggregation studies, EDTA and EGTA were added in PBS to obtain a final concentration of 2 mM, and in some cases magnesium sulphate was also added for a final concentration of 5 mM Mg2+. Latrunculin A (Invitrogen L12370) dissolved at 1 μM in DMSO was further diluted in PBS and added to obtain a final concentration of 1 μM. For phagocytosis versus growth studies, CellTracker Deep Red-labeled BMDMs and antibodies (final concentration 20 μg/mL anti-Tyrp1 and/or 20 μg/mL anti-CD47 or 10 μg/mL anti-SIRPα) or mouse serum (final concentration 1:200) were added 24 h later in a volume of 20 μL RPMI growth media with 120 ng/mL M-CSF. For myosin-II inhibition studies, 20 μM blebbistatin (MilliporeSigma 203389) or an equal volume of DMSO vehicle was added to B16 tumoroids for 1 h prior to addition of BMDMs. Tumoroids were imaged on the Olympus IX microscope with 20×/0.4 NA, 10×/0.3 NA, or 4×/0.13 NA objectives. Tumoroid areas were measured in Fiji/ImageJ after thresholding GFP fluorescence using built-in thresholding algorithms and manually adjusting the threshold as needed.
# Statistical analysis and curve fitting. Statistical analyses and curve fitting were performed in Prism v8.4-v9.4 (GraphPad) and MATLAB R2020a (MathWorks). Details for each analysis are provided in figure legends, and exact p values are provided. […]
# [2] = target: CD47 on B16-F10 mouse melanoma cells (also on RM-9 mouse prostate cancer cells) (mouse) (UniProt Q61735); test: flow cytometry titration on B16 cells, secondary antibody AF647, median fluorescence fit to y=A*x/(K+x); apparent K on cells
# Chain of UniProt Q61735 (Q61735 19-303): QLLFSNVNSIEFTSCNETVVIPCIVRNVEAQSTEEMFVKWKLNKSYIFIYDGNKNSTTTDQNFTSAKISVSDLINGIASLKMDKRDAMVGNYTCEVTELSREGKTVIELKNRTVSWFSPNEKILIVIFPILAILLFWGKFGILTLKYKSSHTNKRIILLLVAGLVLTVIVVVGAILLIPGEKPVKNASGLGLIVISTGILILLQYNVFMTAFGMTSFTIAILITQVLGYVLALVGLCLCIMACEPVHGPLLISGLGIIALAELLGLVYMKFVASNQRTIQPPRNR
# [3] = target: Tyrp1 (tyrosinase-related protein 1) on B16-F10 mouse melanoma cells (mouse) (UniProt P07147); test: as above
# Chain of UniProt P07147 (P07147 25-537): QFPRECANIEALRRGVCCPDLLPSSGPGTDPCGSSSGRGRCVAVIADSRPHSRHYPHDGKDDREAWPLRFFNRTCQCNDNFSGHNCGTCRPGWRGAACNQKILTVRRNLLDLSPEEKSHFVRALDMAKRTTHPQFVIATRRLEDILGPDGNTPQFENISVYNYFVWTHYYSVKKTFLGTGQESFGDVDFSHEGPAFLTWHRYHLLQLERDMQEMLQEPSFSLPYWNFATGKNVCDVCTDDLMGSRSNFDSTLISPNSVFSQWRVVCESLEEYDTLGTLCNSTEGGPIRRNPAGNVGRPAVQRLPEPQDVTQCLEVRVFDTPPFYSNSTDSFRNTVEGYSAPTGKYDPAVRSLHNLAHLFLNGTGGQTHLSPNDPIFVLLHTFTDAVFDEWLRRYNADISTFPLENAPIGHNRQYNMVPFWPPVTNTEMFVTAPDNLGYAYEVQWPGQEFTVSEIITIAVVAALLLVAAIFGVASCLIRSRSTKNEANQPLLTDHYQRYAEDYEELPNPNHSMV
# macrophage monocultures = test: Macrophage monocultures on non-adhesive surfaces, clustering; type: cell-based, mouse; conditions: 20 ng/mL cytokine
# Protocol: Bone marrow-derived macrophages (BMDMs). Bone marrow was harvested from donor mice, lysed with ACK buffer (Gibco A1049201) to deplete red blood cells, and cultured on Petri dishes for 7 days in IMDM (Gibco 12440053) supplemented with 10% FBS, 1% P/S, and 20 ng/ml recombinant mouse macrophage colony-stimulating factor (M-CSF, BioLegend 576406). Successful differentiation was confirmed by flow cytometry staining with antibodies against macrophage markers. Cytokine-primed BMDMs were cultured in RPMI growth media+20 ng/ml M-CSF+20 ng/mL IFNγ (BioLegend 575302) or 20 ng/ml IL-4 (BioLegend 574302) for 48 h prior to use in tumoroid assays or prior to analysis of protein expression by flow cytometry. […]
# Entropy image analysis. Fluorescence images of CellTracker Deep Red-labeled macrophages were converted to binary images of black cells on a white background using the Otsu threshold algorithm in ImageJ. The number of dark pixels was determined from the image histogram, and the image was saved as a PNG file, which is a form of lossless file compression to determine the compressed file size as a measure of entropy. Random and structured images were generated and analyzed using the Python NumPy and PIL/Pillow packages, respectively.
# [4] = 2 mM EDTA or EGTA, 1 μM Latrunculin A
molecule,measurement,setting,value
O=C(O)CN(CCN(CC(=O)O)CC(=O)O)CC(=O)O [EDTA],macrophage cluster projected area / disaggregation of macrophages,[1],rapid disaggregation of macrophages; also recorded: increases significantly
same,tumoroid projected area / B16 aggregates,B16 tumoroids,rapid (<1 h) increase
O=C(O)CN(CCOCCOCCN(CC(=O)O)CC(=O)O)CC(=O)O [EGTA],tumoroid projected area / B16 aggregates,B16 tumoroids; [4],did disrupt B16 aggregates; also recorded: rapid (<1 h) increase
Cc1ccc2c(c1)C(=O)C1(O)CCN(c3ccccc3)C1=N2 (centres unmarked) [blebbistatin],tumoroid growth repression by macrophages,CD47 KO B16 tumoroids; 20 μM,not affected
anti-mouse CD47 clone MIAP301 (BioXCell BE0270) (antibody),Kd,[2],25 nM
C/C1=C/C(=O)O[C@@H]2C[C@@H](CC[C@H](C)/C=C\C=C\CC1)O[C@@](O)([C@@H]1CSC(=O)N1)C2 [Latrunculin A],tumoroid projected area / B16 aggregates,B16 tumoroids; [4],rapid (<1 h) increase
anti-mouse/human Tyrp1 clone TA99 (BioXCell BE0151) (antibody),Kd,[3],47 nM
"IFNγ: interferon-γ cytokine used to prime macrophages (BioLegend 575302) (protein, UniProt P01580 23-155, looked up) Interferon gamma: HGTVIESLESLNNYFNSSGIDVEEKSLFLDIWRNWQKDGDMKILQSQIISFYLRLFEVLKDNQAISNNISVIESHLITTFFSNSKAKKDAFMSIAKFEVNNPQVQRQAFNELIRVVHQLLPESSLRKRKRSRC",tumoroid elimination and macrophage clusters,CD47 KO B16 tumoroids,promoted
same,macrophage clustering in monoculture,macrophage monocultures,cluster
"IL-4: interleukin-4 cytokine used to prime macrophages (BioLegend 574302) (protein, UniProt P07750 21-140, looked up) Interleukin-4: HIHGCDKNHLREIIGILNEVTGEGTPCTEMDVPNVLTATKNTTESELVCRASKVLRIFYLKHGKTPCLKKNSSVLMELQRLFRAFRCLDSSISCTMNESKSTSLKDFLESLKSIMQMDYS",tumoroid elimination and macrophage clusters,CD47 KO B16 tumoroids,has the opposite effects and disperses macrophages
same,macrophage clustering in monoculture,macrophage monocultures,disperse
